For one test, the target named is IL-13 (Homo sapiens (Human), UniProt P35225 35-146, limits assumed). The experiment in a line: Biacore. (Surface plasmon resonance follows binding to a sensor surface in real time, without labels.)
Test [1] has as its target T1, human CD147 His-tagged N-terminal domain (human, UniProt P35613-2 20-117).
T1 construct: also called N-terminal human CD147; EMMPRIN; not shown: His tag
T1 chain: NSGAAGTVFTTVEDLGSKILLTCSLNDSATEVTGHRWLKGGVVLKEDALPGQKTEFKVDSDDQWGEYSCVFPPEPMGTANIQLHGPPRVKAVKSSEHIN
The test can be described thus: SPR, CD147 coupled to the surface.

IL-13, sequence (P35225 35-146 limits assumed): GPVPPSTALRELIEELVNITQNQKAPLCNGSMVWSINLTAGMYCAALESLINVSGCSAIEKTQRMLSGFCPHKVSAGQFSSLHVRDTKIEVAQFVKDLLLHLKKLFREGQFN

B1: M478 (antibody, V domains shown)
VH: QVTLKESGPVLVKPTETLTLTCTVSGFSLSTYGMGVGWIRQPPGKALEWLAHIWWDDVKRYNPALKSRLTISKDTSKSQVVLTMTNMDPVDTATYYCARMGSDYDVWFDYWGQGTLVTVSS
VL: EIVLTQSPATLSLSPGERATLSCRASKSISKYLAWYQQKPGQAPRLLIYSGSTLQSGIPARFSGSGSGTDFTLTISSLEPEDFAVYYCQQHNHGPYTFGQGTKLEIK
notes: anti-IL-13, human IgG1
One may read the Kd as the free concentration of one partner at which half of the binding sites on the other are occupied at equilibrium, for simple one-to-one binding. The koff is the first-order rate constant of dissociation. A low value points to a long-lived complex. A word on the kon: it is the rate constant with which the complex forms. Low values mean slow association, high ones fast association. In the test with IL-13, B1 came in with a Kd of 208 pM, a koff of 0.000247 s⁻¹ and an on-rate constant (kon) of 1.19e+06 M⁻¹ s⁻¹.

B2: M1375 (antibody, V domains shown)
VH: QVTLKESGPVLVKPTETLTLTCTVSGFSLSTYGQGVGWIRQPPGKALEWLAHIWWDDVKRYNPALKSRLTISKDTSKSQVVLTMTNMDPVDTATYYCARLGSDYDVWFDYWGQGTLVTVSS
VL: EIVLTQSPATLSLSPGERATLSCRASKSISKYLAWYQQKPGQAPRLLIYSGSTLQSGIPARFSGSGSGTDFTLTISSLEPEDFAVYYCQQHDYPYTFGQGTKLEIK
In the test with IL-13, B2 came in with a Kd of 24 pM, a dissociation rate constant (koff) of 2.7e-05 s⁻¹ and a kon of 1.1e+06 M⁻¹ s⁻¹.

B3: M1295 (antibody, V domains shown)
VH: QVTLKESGPVLVKPTETLTLTCTVSGFSLSTYGVGVGWIRQPPGKALEWLAHIWWDDVKRYNPALKSRLTISKDTSKSQVVLTMTNMDPVDTATYYCARLGSDYDVWFDYWGQGTLVTVSS
VL: EIVLTQSPATLSLSPGERATLSCRASKSISKYLAWYQQKPGQAPRLLIYSGSTLQSGIPARFSGSGSGTDFTLTISSLEPEDFAVYYCQQHDYPYTFGQGTKLEIK
In the test with IL-13, B3 returned a Kd of 15 pM, a koff of 1.8e-05 s⁻¹ and an on-rate (kon) of 1.2e+06 M⁻¹ s⁻¹.

B4: M1286 (antibody, V domains shown)
VH: QVTLKESGPVLVKPTETLTLTCTVSGFSLSTYGSGVGWIRQPPGKALEWLAHIWWDDVKRYNPALKSRLTISKDTSKSQVVLTMTNMDPVDTATYYCARLGSDYDVWFDYWGQGTLVTVSS
VL: EIVLTQSPATLSLSPGERATLSCRASKSISKYLAWYQQKPGQAPRLLIYSGSTLQSGIPARFSGSGSGTDFTLTISSLEPEDFAVYYCQQHDYPYTFGQGTKLEIK
Regarding B4, in the test with IL-13, the Kd came out at 9 pM, the koff turned out to be 1.2e-05 s⁻¹ and the kon was 1.28e+06 M⁻¹ s⁻¹.

B5: M442 (antibody, V domains shown)
VH: QVTLKESGPVLVKPTETLTLTCTVSGFSLSTYGMGVGWIRQPPGKALEWLAHIWWDDVKRYNPALKSRLTISKDTSKSQVVLTMTNMDPVDTATYYCARMGSDYDVWFDYWGQGTLVTVSS
VL: EIVLTQSPATLSLSPGERATLSCRASKSISKYLAWYQQKPGQAPRLLIYSGSTLQSGIPARFSGSGSGTDFTLTISSLEPEDFAVYYCQQQDGPYTFGQGTKLEIK
In the test with IL-13, B5 displayed a Kd of 40 pM, an off-rate constant (koff) of 5.3e-05 s⁻¹ and a kon of 1.32e+06 M⁻¹ s⁻¹.

B6: M1292 (antibody, V domains shown)
VH: QVTLKESGPVLVKPTETLTLTCTVSGFSLSTYGEGVGWIRQPPGKALEWLAHIWWDDVKRYNPALKSRLTISKDTSKSQVVLTMTNMDPVDTATYYCARLGSDYDVWFDYWGQGTLVTVSS
VL: EIVLTQSPATLSLSPGERATLSCRASKSISKYLAWYQQKPGQAPRLLIYSGSTLQSGIPARFSGSGSGTDFTLTISSLEPEDFAVYYCQQHDYPYTFGQGTKLEIK
As to B6, in the test with IL-13, the dissociation constant (Kd) turned out to be 8 pM, the koff came out at 8e-06 s⁻¹ and the kon worked out at 1.05e+06 M⁻¹ s⁻¹.

B7: M480 (antibody, V domains shown)
VH: QVTLKESGPVLVKPTETLTLTCTVSGFSLSTYGMGVGWIRQPPGKALEWLAHIWWDDVKRYNPALKSRLTISKDTSKSQVVLTMTNMDPVDTATYYCARMGSDYDVWFDYWGQGTLVTVSS
VL: EIVLTQSPATLSLSPGERATLSCRASKSISKYLAWYQQKPGQAPRLLIYSGSTLQSGIPARFSGSGSGTDFTLTISSLEPEDFAVYYCQQQDSPYTFGQGTKLEIK
As to B7, in the test with IL-13, binding was put at a Kd of 21 pM, the koff came to 3.9e-05 s⁻¹ and the kon amounted to 1.86e+06 M⁻¹ s⁻¹.

B8: M460 (anti-IL-13) (antibody, V domains shown)
VH: QVTLKESGPVLVKPTETLTLTCTVSGFSLSTYGMGVGWIRQPPGKALEWLAHIWWDDVKRYNPALKSRLTISKDTSKSQVVLTMTNMDPVDTATYYCARMGSDYDVWFDYWGQGTLVTVSS
VL: EIVLTQSPATLSLSPGERATLSCRASKSISKYLAWYQQKPGQAPRLLIYSGSTLQSGIPARFSGSGSGTDFTLTISSLEPEDFAVYYCQQHDYPYTFGQGTKLEIK
In the test with IL-13, B8 came in with a Kd of 8 pM, a koff of 8e-06 s⁻¹ and a kon of 1.03e+06 M⁻¹ s⁻¹.

B9: M1268 (antibody, V domains shown)
VH: QVTLKESGPVLVKPTETLTLTCTVSGFSLSTYGVGVGWIRQPPGKALEWLAHIWWDDVKRYNPALKSRLTISKDTSKSQVVLTMTNMDPVDTATYYCARLGSDYDVWFDYWGQGTLVTVSS
VL: EIVLTQSPATLSLSPGERATLSCRASKSISKYLAWYQQKPGQAPRLLIYSGSTLQSGIPARFSGSGSGTDFTLTISSLEPEDFAVYYCQQHNEYPYTFGQGTKLEIK
notes: anti-IL-13, human IgG1; text gives the Met positions as 34 and 100; copies: 2 + 2
As for B9, in the test with IL-13, the dissociation constant (Kd) turned out to be 621 pM, the koff was determined as 0.001 s⁻¹ and the kon is 1.61e+06 M⁻¹ s⁻¹.

B10: M479 (antibody, V domains shown)
VH: QVTLKESGPVLVKPTETLTLTCTVSGFSLSTYGMGVGWIRQPPGKALEWLAHIWWDDVKRYNPALKSRLTISKDTSKSQVVLTMTNMDPVDTATYYCARMGSDYDVWFDYWGQGTLVTVSS
VL: EIVLTQSPATLSLSPGERATLSCRASKSISKYLAWYQQKPGQAPRLLIYSGSTLQSGIPARFSGSGSGTDFTLTISSLEPEDFAVYYCQQPLDTPYTFGQGTKLEIK
notes: anti-IL-13, human IgG1
As to B10, in the test with IL-13, the Kd was 192 pM, the koff is 0.00024 s⁻¹ and the association rate constant (kon) is 1.25e+06 M⁻¹ s⁻¹.

B11: M482 (antibody, V domains shown)
VH: QVTLKESGPVLVKPTETLTLTCTVSGFSLSTYGMGVGWIRQPPGKALEWLAHIWWDDVKRYNPALKSRLTISKDTSKSQVVLTMTNMDPVDTATYYCARMGSDYDVWFDYWGQGTLVTVSS
VL: EIVLTQSPATLSLSPGERATLSCRASKSISKYLAWYQQKPGQAPRLLIYSGSTLQSGIPARFSGSGSGTDFTLTISSLEPEDFAVYYCQQHLDSPYTFGQGTKLEIK
notes: anti-IL-13, human IgG1; printed changes are the same as for M470
On to B11, for which, in the test with IL-13, binding was put at a Kd of 296 pM, the koff was 0.0003 s⁻¹ and the kon was 1.02e+06 M⁻¹ s⁻¹.

B12: 4A5 Fab (Fab, V domains shown)
VH: EVQLQQSGPELVKPGASVKISCKASGYTFTDYYMNWVKQSHGKSLEWIGGINPNNGGTSYNQKFKGKATLTVDKSSSTAYMELRSLTSEDSAVYYCARNDGYRGYAMDYWGQGTSVTVSS
VL: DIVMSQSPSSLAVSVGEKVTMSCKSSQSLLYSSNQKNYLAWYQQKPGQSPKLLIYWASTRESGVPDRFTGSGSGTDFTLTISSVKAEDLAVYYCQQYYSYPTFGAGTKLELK
notes: mouse variable domains; also called 4A5 chimera; chimeric 4A5 Fab
Molecule B12 showed a dissociation constant Kd in test [1] of 120000 pM.

The values above are taken from US20100261620A1 (published 2010).
